Biological target: organic anion transporting polypeptide (OATP) 1B3 (UniProt Q9NPD5)
UniProt Q9NPD5, sequence (Q9NPD5 whole entry): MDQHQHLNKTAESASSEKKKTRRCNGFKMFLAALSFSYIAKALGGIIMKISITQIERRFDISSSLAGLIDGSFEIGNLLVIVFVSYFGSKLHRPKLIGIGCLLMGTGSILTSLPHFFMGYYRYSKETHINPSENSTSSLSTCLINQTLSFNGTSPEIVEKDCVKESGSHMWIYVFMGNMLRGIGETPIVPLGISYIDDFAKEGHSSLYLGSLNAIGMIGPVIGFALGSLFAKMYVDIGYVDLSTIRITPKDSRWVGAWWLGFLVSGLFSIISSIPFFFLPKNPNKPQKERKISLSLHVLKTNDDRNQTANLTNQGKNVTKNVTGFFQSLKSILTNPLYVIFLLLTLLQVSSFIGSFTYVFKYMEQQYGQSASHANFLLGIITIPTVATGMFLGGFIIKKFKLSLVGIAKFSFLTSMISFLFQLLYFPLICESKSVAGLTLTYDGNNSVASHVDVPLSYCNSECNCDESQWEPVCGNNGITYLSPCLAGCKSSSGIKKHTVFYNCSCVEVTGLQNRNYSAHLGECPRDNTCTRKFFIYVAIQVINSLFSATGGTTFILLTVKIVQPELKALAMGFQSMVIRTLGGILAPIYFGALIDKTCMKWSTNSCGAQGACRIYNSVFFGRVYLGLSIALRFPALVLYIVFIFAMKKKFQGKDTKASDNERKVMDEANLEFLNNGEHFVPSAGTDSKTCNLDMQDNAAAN

**Q.** What does the source list for octapeptide cholecystokinin 8?
**A.** Km (called the affinity constant) of CCK-8 transport, [^3H]CCK-8 accumulation 0.1-40 uM, 3 min, in HEK293-OATP1B3 cells pretreated with bortezomib (50 nM, 7 h), Michaelis-Menten fit: 4.9 µM; Km (called the affinity constant) of CCK-8 transport, [^3H]CCK-8 accumulation 0.1-40 uM, 3 min, in HEK293-OATP1B3 cells pretreated with vehicle control, Michaelis-Menten fit: 5.8 µM
